The results in this text go back to publication PMC4634129.

Assay [1] addresses RsPIPS-FL (chimeric construct: Af2299 extramembrane domain fused to the complete RsPIPS sequence abs (Archaeoglobus fulgidus | Renibacterium salmoninarum)). Put plainly: crystal structure; RsPIPS-FL with CDP-DAG, lipidic cubic phase (2% CDP-dioleoylglycerol/98% monoolein), 22 °C, 30% PEG 300, 0.1 M MES pH 6.0, 0.1 M NaCl, 0.1 M MgCl2; space group P 21, two dimers in the asymmetric unit; 3.6 Å.

Assay [2] has as its target RsPIPS-Δ6N (chimeric construct: Af2299 extramembrane domain fused to the N-terminus of PIP synthase (Archaeoglobus fulgidus | Renibacterium salmoninarum)). As to the kind of experiment: crystal structure; RsPIPS-Δ6N, apo, lipidic cubic phase (monoolein), 22 °C, 20% PEG 400, 0.1 M MES pH 6.7, 0.2 M lithium sulfate; space group P 21 21 2, one protomer in the asymmetric unit; 2.5 Å.

Take “RsPIPS-FL (chimeric construct: Af2299 extramembrane domain fused to the complete RsPIPS sequence abs (enzyme)”: the stoichiometry N in assay [1] turned out to be 2.

For the substance “RsPIPS-Δ6N (chimeric construct: Af2299 extramembrane domain fused to the N-terminus of PIP synthase (enzyme)”, in assay [2], the stoichiometry N worked out at 2.

What is called stoichiometry N is a count of units in the complex or per binding partner.
